{
  "source": "paper PMC11257196",
  "target": "human serum albumin (human) (UniProt P02768)",
  "experiment": "ultrafiltration",
  "data": [
    {"substance": "interleukin-1 receptor antagonist in fusion to albumin binding domain (IL-1Ra-ABD) (from UniProt P18510 26-177)", "values": [
      {"measurement": "percent bound", "value": 78, "unit": "%"},
      {"measurement": "percent released from HSA in the first 50 h", "value": 80, "unit": "%"}
    ]}
  ]
}
